Measurements published in the MegaScale stability set (Tsuboyama et al. 2023).

B1: 1ZHC (parent)
chain: HEFRDEISVLKANNPHFDKIFEKHNQLDDDIKTAEQQNASDAEVSHMKKQKLKLKDEIHSMIIEYREK

Variants of: B1
Assay: folding stability dG (cDNA display proteolysis); higher = more stable
Conditions: PBS, room temperature

| Variant | folding stability dG |
| --- | --- |
| HEFRDEISVLKANNPHFDKIFEKHNQLDDDIKTAEQQNARDAEVSHMKKQKLKLKDEIHSMIIEYREK | 0.251 kcal/mol |
| HEFRDEISVLKANNPHFDKIFEKHNQLDDDIKTAEQQNAWDAEVSHMKKQKLKLKDEIHSMIIEYREK | -0.874 kcal/mol |
| HEFRDEISVLKANNPHFDKIFEKHNQLDDDIKTAEQQNATDAEVSHMKKQKLKLKDEIHSMIIEYREK | -0.074 kcal/mol |
| HEFRDEISVLKANNPHFDKIFEKHNQLDDDIKTAEQQNAYDAEVSHMKKQKLKLKDEIHSMIIEYREK | -0.236 kcal/mol |
| HEFRDEISVLKANNPHFDKIFEKHNQLDDDIKTAEQQNAVDAEVSHMKKQKLKLKDEIHSMIIEYREK | -0.512 kcal/mol |
| HEFRDEISVLKANNPHFDKIFEKHNQLDDDIKTAEQQNASDREVSHMKKQKLKLKDEIHSMIIEYREK | -0.079 kcal/mol |
| HEFRDEISVLKANNPHFDKIFEKHNQLDDDIKTAEQQNASDDEVSHMKKQKLKLKDEIHSMIIEYREK | 0.989 kcal/mol |
| HEFRDEISVLKANNPHFDKIFEKHNQLDDDIKTAEQQNASDSEVSHMKKQKLKLKDEIHSMIIEYREK | 0.359 kcal/mol |
| HEFRDEISVLKANNPHFDKIFEKHNQLDDDIKTAEQQNASDGEVSHMKKQKLKLKDEIHSMIIEYREK | 0.074 kcal/mol |
| HEFRDEISVLKANNPHFDKIFEKHNQLDDDIKTAEQQNASDPEVSHMKKQKLKLKDEIHSMIIEYREK | 0.446 kcal/mol |
| HEFRDEISVLKANNPHFDKIFEKHNQLDDDIKTAEQQNASDLEVSHMKKQKLKLKDEIHSMIIEYREK | 0.464 kcal/mol |
| HEFRDEISVLKANNPHFDKIFEKHNQLDDDIKTAEQQNASDIEVSHMKKQKLKLKDEIHSMIIEYREK | 0.572 kcal/mol |
| HEFRDEISVLKANNPHFDKIFEKHNQLDDDIKTAEQQNASDCEVSHMKKQKLKLKDEIHSMIIEYREK | 0.68 kcal/mol |
| HEFRDEISVLKANNPHFDKIFEKHNQLDDDIKTAEQQNASDKEVSHMKKQKLKLKDEIHSMIIEYREK | 0.633 kcal/mol |
| HEFRDEISVLKANNPHFDKIFEKHNQLDDDIKTAEQQNASDFEVSHMKKQKLKLKDEIHSMIIEYREK | 0.065 kcal/mol |
| HEFRDEISVLKANNPHFDKIFEKHNQLDDDIKTAEQQNASDNEVSHMKKQKLKLKDEIHSMIIEYREK | 0.432 kcal/mol |
| HEFRDEISVLKANNPHFDKIFEKHNQLDDDIKTAEQQNASDMEVSHMKKQKLKLKDEIHSMIIEYREK | 0.539 kcal/mol |
| HEFRDEISVLKANNPHFDKIFEKHNQLDDDIKTAEQQNASDQEVSHMKKQKLKLKDEIHSMIIEYREK | 0.718 kcal/mol |
| HEFRDEISVLKANNPHFDKIFEKHNQLDDDIKTAEQQNASDEEVSHMKKQKLKLKDEIHSMIIEYREK | 1.26 kcal/mol |
| HEFRDEISVLKANNPHFDKIFEKHNQLDDDIKTAEQQNASDHEVSHMKKQKLKLKDEIHSMIIEYREK | 0.433 kcal/mol |

| Variant | folding stability dG |
| --- | --- |
| HEFRDEISVLKANNPHFDKIFEKHNQLDDDIKTAEQQNASDTEVSHMKKQKLKLKDEIHSMIIEYREK | 0.44 kcal/mol |
| HEFRDEISVLKANNPHFDKIFEKHNQLDDDIKTAEQQNASEAEVSHMKKQKLKLKDEIHSMIIEYREK | 1.33 kcal/mol |
| HEFRDEISVLKANNPHFDKIFEKHNQLDDDIKTAEQQNASPAEVSHMKKQKLKLKDEIHSMIIEYREK | 1.28 kcal/mol |
| HEFRDEISVLKANNPHFDKIFEKHNQLDDDIKTAEQQNASYAEVSHMKKQKLKLKDEIHSMIIEYREK | 0.879 kcal/mol |
| HEFRDEISVLKANNPHFDKIFEKHNQLDDDIKTAEQQNASRAEVSHMKKQKLKLKDEIHSMIIEYREK | 0.76 kcal/mol |
| HEFRDEISVLKANNPHFDKIFEKHNQLDDDIKTAEQQNASLAEVSHMKKQKLKLKDEIHSMIIEYREK | 0.874 kcal/mol |
| HEFRDEISVLKANNPHFDKIFEKHNQLDDDIKTAEQQNASCAEVSHMKKQKLKLKDEIHSMIIEYREK | 0.771 kcal/mol |
| HEFRDEISVLKANNPHFDKIFEKHNQLDDDIKTAEQQNASQAEVSHMKKQKLKLKDEIHSMIIEYREK | 0.972 kcal/mol |
| HEFRDEISVLKANNPHFDKIFEKHNQLDDDIKTAEQQNASHAEVSHMKKQKLKLKDEIHSMIIEYREK | 0.871 kcal/mol |
| HEFRDEISVLKANNPHFDKIFEKHNQLDDDIKTAEQQNASFAEVSHMKKQKLKLKDEIHSMIIEYREK | 0.919 kcal/mol |
| HEFRDEISVLKANNPHFDKIFEKHNQLDDDIKTAEQQNASIAEVSHMKKQKLKLKDEIHSMIIEYREK | 0.951 kcal/mol |
| HEFRDEISVLKANNPHFDKIFEKHNQLDDDIKTAEQQNASTAEVSHMKKQKLKLKDEIHSMIIEYREK | 0.736 kcal/mol |
| HEFRDEISVLKANNPHFDKIFEKHNQLDDDIKTAEQQNASMAEVSHMKKQKLKLKDEIHSMIIEYREK | 0.722 kcal/mol |
| HEFRDEISVLKANNPHFDKIFEKHNQLDDDIKTAEQQNASGAEVSHMKKQKLKLKDEIHSMIIEYREK | 0.41 kcal/mol |
| HEFRDEISVLKANNPHFDKIFEKHNQLDDDIKTAEQQNASSAEVSHMKKQKLKLKDEIHSMIIEYREK | 1.03 kcal/mol |
| HEFRDEISVLKANNPHFDKIFEKHNQLDDDIKTAEQQNASAAEVSHMKKQKLKLKDEIHSMIIEYREK | 1.23 kcal/mol |
| HEFRDEISVLKANNPHFDKIFEKHNQLDDDIKTAEQQNASVAEVSHMKKQKLKLKDEIHSMIIEYREK | 0.775 kcal/mol |
| HEFRDEISVLKANNPHFDKIFEKHNQLDDDIKTAEQQNASKAEVSHMKKQKLKLKDEIHSMIIEYREK | 0.873 kcal/mol |
| HEFRDEISVLKANNPHFDKIFEKHNQLDDDIKTAEQQNASNAEVSHMKKQKLKLKDEIHSMIIEYREK | 0.532 kcal/mol |
| HEFRDEISVLKANNPHFDKIFEKHNQLDDDIKTAEQQNASWAEVSHMKKQKLKLKDEIHSMIIEYREK | 0.916 kcal/mol |
